The source of these data is paper PMC7483473.

This test concerns the target mNeonGreen labeled metabotropic glutamate receptor 3, Q14832. Description: stepwise photobleaching (subunit counting) of single complexes by TIRF; SPReAD: expressing cells co-plated with VSVG-U2OS cells (typically 10:1), fused at pH 5.5, syncytia fixed with 4% paraformaldehyde, room temperature; mGluR lines were HEK293T fused with U2OS. To be noted: remark: other sources report otherwise.

B1: mNeonGreen labeled metabotropic glutamate receptor 3, Q14832 23-879 (receptor)
chain: LGDHNFLRREIKIEGDLVLGGLFPINEKGTGTEECGRINEDRGIQRLEAMLFAIDEINKDDYLLPGVKLGVHILDTCSRDTYALEQSLEFVRASLTKVDEAEYMCPDGSYAIQENIPLLIAGVIGGSYSSVSIQVANLLRLFQIPQISYASTSAKLSDKSRYDYFARTVPPDFYQAKAMAEILRFFNWTYVSTVASEGDYGETGIEAFEQEARLRNICIATAEKVGRSNIRKSYDSVIRELLQKPNARVVVLFMRSDDSRELIAAASRANASFTWVASDGWGAQESIIKGSEHVAYGAITLELASQPVRQFDRYFQSLNPYNNHRNPWFRDFWEQKFQCSLQNKRNHRRVCDKHLAIDSSNYEQESKIMFVVNAVYAMAHALHKMQRTLCPNTTKLCDAMKILDGKKLYKDYLLKINFTAPFNPNKDADSIVKFDTFGDGMGRYNVFNFQNVGGKYSYLKVGHWAETLSLDVNSIHWSRNSVPTSQCSDPCAPNEMKNMQPGDVCCWICIPCEPYEYLADEFTCMDCGSGQWPTADLTGCYDLPEDYIRWEDAWAIGPVTIACLGFMCTCMVVTVFIKHNNTPLVKASGRELCYILLFGVGLSYCMTFFFIAKPSPVICALRRLGLGSSFAICYSALLTKTNCIARIFDGVKNGAQRPKFISPSSQVFICLGLILVQIVMVSVWLILEAPGTRRYTLAEKRETVILKCNVKDSSMLISLTYDVILVILCTVYAFKTRKCPENFNEAKFIGFTMYTTCIIWLAFLPIFYVTSSDYRVQTTTMCISVSLSGFVVLGCLFAPKVHIILFQPQKNVVTHRLHLNRFSVSGTGTTYSQSSASTYVPTVCNGREVLDSTTSSL
The molecule B1 gave a fraction by stepwise photobleaching (dimer fraction, as the sentence seems to mean) of 33.5%.
